Results as given in patent publication US20190112365A1 (EISAI R AND D MANAGEMENT, published 2019).

The binders below were run against T1, Human Tau 2N4R, wild type, recombinant full length (human, UniProt P10636 2-758) (assay: SPR BIAcore, mAb captured by anti-human IgG, Tau flowed, 1:1 Langmuir).
T1 construct: Full length 2N4R isoform; monomer in SPR and ELISA; heparin-induced aggregates or seeds in the functional assays; also called Tau441; Tau-441
Procedure: All experiments were performed using a BIAcore™ T-100 instrument (GE Healthcare). 10 μL anti-human IgG (monoclonal mouse anti-human Fc) from human antibody capture kit (GE Healthcare) was diluted to 25 μL/mL in 200 μL final immobilization buffer (10 mM sodium acetate, pH 5.0). The flow rate was set to 5 μL/min, flowpath 1. Fifty μL N-hydroxysuccinamide (NETS) and 50 μL 1-ethyl-3-(3-dimethylaminopropyl) carbidiimide (EDC) were mixed and injected for 420 sec to activate the CM5 chip surface. The diluted antibody was injected for 360 seconds followed by 1 M ethanolamine for 420 seconds. The flowpath was then switched to flowpath 2. A new EDC/NHS mixture was prepared and the procedure was repeated for flow cell 2. The surface was conditioned by 2 injections of 30 sec using flowpath 1, 2 at 30 μL/min of 3M MgCl₂. For the anti-mouse surface, 10 μL anti-mouse IgG (polyclonal rabbit anti-mouse IgG) from mouse antibody capture kit (GE Healthcare) was diluted to 30 μL/mL in 324 μL final immobilization buffer (10 mM sodium acetate, pH 5.0). The flow rate was set to 5 μL/min, flowpath 3. Fifty μL NHS and 50 μL EDC were mixed and injected for 420 sec to activate the chip surface. The diluted antibody was injected for 420 sec. 1 M ethanolamine was injected for 420 sec. Flow path was switched to flowpath 4. A new EDC/NHS mixture was prepared and the procedure was repeated for flow cell 4. The surface was conditioned by 2 injections of 30 sec using flowpath 3, 4 at 30 μL/min of 10 mM glycine, pH 1.7.
Binding of humanized and mouse antibodies were analyzed by surface plasmon resonance (BIAcore™) to determine their relative association rates (kₐ), dissociation rates (kd), and equilibrium binding constants (KD). Anti-mouse or anti-human antibodies were immobilized on a CM5 chip and sample mAbs were captured on the chip. 2N4R Tau was flowed over the chip and binding observed. The binding constants kₐ, kd, and KD were determined using a 1:1 Langmuir fitting model.

T1 sequence (P10636 other isoform, or with tags, fused parts or gaps limits assumed): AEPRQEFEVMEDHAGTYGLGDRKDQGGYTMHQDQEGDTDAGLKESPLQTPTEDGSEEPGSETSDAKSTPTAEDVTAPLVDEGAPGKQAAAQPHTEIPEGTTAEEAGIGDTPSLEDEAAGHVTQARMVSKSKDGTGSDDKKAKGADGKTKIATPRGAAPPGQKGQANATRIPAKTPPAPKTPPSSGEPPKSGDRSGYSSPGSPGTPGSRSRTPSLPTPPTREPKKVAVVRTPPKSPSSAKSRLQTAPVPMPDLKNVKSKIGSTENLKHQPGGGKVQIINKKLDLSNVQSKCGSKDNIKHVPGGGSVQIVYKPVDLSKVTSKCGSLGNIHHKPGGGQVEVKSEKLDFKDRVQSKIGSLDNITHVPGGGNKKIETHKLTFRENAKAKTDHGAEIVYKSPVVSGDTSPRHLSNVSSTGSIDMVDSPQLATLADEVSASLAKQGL

Binder | Kd | koff | kon
7G6-HCzu1-LCzu1 (antibody, human IgG1, kappa, V domains shown, humanized, human IgG1 kappa) VH: QVQLVQSGAEVKKPGASVKVSCKASGYTFTTYWITWVRQAPGQGLEWMGDIYPGSSICNYNEKFKSRVTMTRDTSTSTVYMELSSLRSEDTAVYYCAREDGYDAWFAYWGQGTLVTVSS VL: DVVMTQSPLSLPVTLGQPASISCRSSQSILHSNGNTYLEWFQQRPGQSPRRLIYKVSNRFSGVPDRFSGSGSGTDFTLKISRVEAEDVGVYYCFQGSHVPFTFGQGTKLEIKR | 0.202 nM | 0.000519 s⁻¹ | 2.57e+06 M⁻¹ s⁻¹
7G6-HCzu5-LCzu8 (antibody, human IgG1, kappa, V domains shown, humanized, human IgG1 kappa) VH: QVQLVQSGAEVKKPGASVKVSCKASGYTFTTYWITWVRQAPGQGLEWMGDIYPGSSISNYNEKFKSRVTMTVDTSTSTAYMELSSLRSEDTAVYYCAREDGYDAWFAYWGQGTLVTVSS VL: DVVMTQSPLSLPVTLGQPASISCRSSQSIVHSNGNTYLEWFQQRPGQSPRRLISKVSNRFSGVPDRFSGSGSGTDFTLKISRVEAEDVGVYYCFQGSHVPFTFGQGTKLEIKR | 0.0828 nM | 0.000298 s⁻¹ | 3.6e+06 M⁻¹ s⁻¹
7G6-HCzu3-LCzu2 (antibody, human IgG1, kappa, V domains shown, humanized, human IgG1 kappa) VH: QVQLVQSGAEVKKPGASVKVSCKASGYTFTTYWITWVRQAPGQGLEWMGDIYPGSSICNYNEKFKSRVTMTVDTSTSTAYMELSSLRSEDTAVYYCAREDGYDAWFAYWGQGTLVTVSS VL: DVVMTQSPLSLPVTLGQPASISCRSSQSILHSNGNTYLEWYQQRPGQSPRLLICKVSNRFSGVPDRFSGSGSGTDFTLKISRVEAEDVGVYYCFQGSHVPFTFGQGTKLEIKR | 0.121 nM | 0.000242 s⁻¹ | 2e+06 M⁻¹ s⁻¹
7G6-HCzu3-LCzu6 (antibody, human IgG1, kappa, V domains shown, humanized, human IgG1 kappa) VH: QVQLVQSGAEVKKPGASVKVSCKASGYTFTTYWITWVRQAPGQGLEWMGDIYPGSSICNYNEKFKSRVTMTVDTSTSTAYMELSSLRSEDTAVYYCAREDGYDAWFAYWGQGTLVTVSS VL: DVVMTQSPLSLPVTLGQPASISCRSSQSILHSNGNTYLEWYQQRPGQSPRLLISKVSNRFSGVPDRFSGSGSGTDFTLKISRVEAEDVGVYYCFQGSHVPFTFGQGTKLEIKR | 0.12 nM | 0.000227 s⁻¹ | 1.9e+06 M⁻¹ s⁻¹
7G6-HCzu1-LCzu2 (antibody, human IgG1, kappa, V domains shown, humanized, human IgG1 kappa) VH: QVQLVQSGAEVKKPGASVKVSCKASGYTFTTYWITWVRQAPGQGLEWMGDIYPGSSICNYNEKFKSRVTMTRDTSTSTVYMELSSLRSEDTAVYYCAREDGYDAWFAYWGQGTLVTVSS VL: DVVMTQSPLSLPVTLGQPASISCRSSQSILHSNGNTYLEWYQQRPGQSPRLLICKVSNRFSGVPDRFSGSGSGTDFTLKISRVEAEDVGVYYCFQGSHVPFTFGQGTKLEIKR | 0.11 nM | 0.000241 s⁻¹ | 2.2e+06 M⁻¹ s⁻¹
7G6-HCzu5-LCzu22 (antibody, human IgG1, kappa, V domains shown, humanized, human IgG1 kappa; also called 7G6-LCzu22) VH: QVQLVQSGAEVKKPGASVKVSCKASGYTFTTYWITWVRQAPGQGLEWMGDIYPGSSISNYNEKFKSRVTMTVDTSTSTAYMELSSLRSEDTAVYYCAREDGYDAWFAYWGQGTLVTVSS VL: DVVMTQSPLSLPVTLGQPASISCRSSQSILHSNGNTYLEWYQQRPGQSPRRLISKVSNRFSGVPDRFSGSGSGTDFTLKISRVEAEDVGVYYCFQGSHVPFTFGQGTKLEIKR | 1.48 nM | 0.00277 s⁻¹ | 1.88e+06 M⁻¹ s⁻¹
7G6-HCzu5-LCzu10 (antibody, human IgG1, kappa, V domains shown, humanized, human IgG1 kappa) VH: QVQLVQSGAEVKKPGASVKVSCKASGYTFTTYWITWVRQAPGQGLEWMGDIYPGSSISNYNEKFKSRVTMTVDTSTSTAYMELSSLRSEDTAVYYCAREDGYDAWFAYWGQGTLVTVSS VL: DVVMTQSPLSLPVTLGQPASISCRSSQSIVHSNGNTYLEWFQQRPGQSPRRLIYKVSNRFSGVPDRFSGSGSGTDFTLKISRVEAEDVGVYYCFQGSHVPFTFGQGTKLEIKR | 0.162 nM | 0.00053 s⁻¹ | 3.27e+06 M⁻¹ s⁻¹
7G6-HCzu6-LCzu6 (antibody, human IgG1, kappa, V domains shown, humanized, human IgG1 kappa) VH: QVQLVQSGAEVKKPGASVKVSCKASGYTFTTYWITWVRQAPGQGLEWMGDIYPGSSISNYNEKFKSRVTMTVDTSTSTVYMELSSLRSEDTAVYYCAREDGYDAWFAYWGQGTLVTVSS VL: DVVMTQSPLSLPVTLGQPASISCRSSQSILHSNGNTYLEWYQQRPGQSPRLLISKVSNRFSGVPDRFSGSGSGTDFTLKISRVEAEDVGVYYCFQGSHVPFTFGQGTKLEIKR | 0.0961 nM | 0.000213 s⁻¹ | 2.21e+06 M⁻¹ s⁻¹
7G6-HCzu5-LCzu7 (antibody, human IgG1, kappa, V domains shown, humanized, human IgG1 kappa) VH: QVQLVQSGAEVKKPGASVKVSCKASGYTFTTYWITWVRQAPGQGLEWMGDIYPGSSISNYNEKFKSRVTMTVDTSTSTAYMELSSLRSEDTAVYYCAREDGYDAWFAYWGQGTLVTVSS VL: DVVMTQSPLSLPVTLGQPASISCRSSQSILHSNGNTYLEWFQQRPGQSPRRLISKVSNRFSGVPDRFSGSGSGTDFTLKISRVEAEDVGVYYCFQGSHVPFTFGQGTKLEIKR | 0.0968 nM | 0.000304 s⁻¹ | 3.14e+06 M⁻¹ s⁻¹

Continued by falling Kd, values first:

Kd | koff | kon | Binder
0.309 nM | 0.000856 s⁻¹ | 2.77e+06 M⁻¹ s⁻¹ | 7G6-HCzu3-LCzu1 (antibody, human IgG1, kappa, V domains shown, humanized, human IgG1 kappa) VH: QVQLVQSGAEVKKPGASVKVSCKASGYTFTTYWITWVRQAPGQGLEWMGDIYPGSSICNYNEKFKSRVTMTVDTSTSTAYMELSSLRSEDTAVYYCAREDGYDAWFAYWGQGTLVTVSS VL: DVVMTQSPLSLPVTLGQPASISCRSSQSILHSNGNTYLEWFQQRPGQSPRRLIYKVSNRFSGVPDRFSGSGSGTDFTLKISRVEAEDVGVYYCFQGSHVPFTFGQGTKLEIKR
0.237 nM | 0.000847 s⁻¹ | 3.57e+06 M⁻¹ s⁻¹ | 7G6-HCzu4-LCzu1 (antibody, human IgG1, kappa, V domains shown, humanized, human IgG1 kappa) VH: QVQLVQSGAEVKKPGASVKVSCKASGYTFTTYWITWVRQAPGQGLEWMGDIYPGSSICNYAQKFQGRVTMTVDTSTSTAYMELSSLRSEDTAVYYCAREDGYDAWFAYWGQGTLVTVSS VL: DVVMTQSPLSLPVTLGQPASISCRSSQSILHSNGNTYLEWFQQRPGQSPRRLIYKVSNRFSGVPDRFSGSGSGTDFTLKISRVEAEDVGVYYCFQGSHVPFTFGQGTKLEIKR
0.226 nM | 0.00064 s⁻¹ | 2.83e+06 M⁻¹ s⁻¹ | 7G6-HCzu2-LCzu1 (antibody, human IgG1, kappa, V domains shown, humanized, human IgG1 kappa) VH: QVQLVQSGAEVKKPGASVKVSCKASGYTFTTYWITWVRQAPGQGLEWMGDIYPGSSICNYNEKFKSRVTMTVDTSTSTVYMELSSLRSEDTAVYYCAREDGYDAWFAYWGQGTLVTVSS VL: DVVMTQSPLSLPVTLGQPASISCRSSQSILHSNGNTYLEWFQQRPGQSPRRLIYKVSNRFSGVPDRFSGSGSGTDFTLKISRVEAEDVGVYYCFQGSHVPFTFGQGTKLEIKR
0.127 nM | 0.000237 s⁻¹ | 1.86e+06 M⁻¹ s⁻¹ | 7G6-HCzu5-LCzu2 (antibody, human IgG1, kappa, V domains shown, humanized, human IgG1 kappa) VH: QVQLVQSGAEVKKPGASVKVSCKASGYTFTTYWITWVRQAPGQGLEWMGDIYPGSSISNYNEKFKSRVTMTVDTSTSTAYMELSSLRSEDTAVYYCAREDGYDAWFAYWGQGTLVTVSS VL: DVVMTQSPLSLPVTLGQPASISCRSSQSILHSNGNTYLEWYQQRPGQSPRLLICKVSNRFSGVPDRFSGSGSGTDFTLKISRVEAEDVGVYYCFQGSHVPFTFGQGTKLEIKR
0.121 nM | 0.000242 s⁻¹ | 2e+06 M⁻¹ s⁻¹ | 7G6-HCzu4-LCzu2 (antibody, human IgG1, kappa, V domains shown, humanized, human IgG1 kappa) VH: QVQLVQSGAEVKKPGASVKVSCKASGYTFTTYWITWVRQAPGQGLEWMGDIYPGSSICNYAQKFQGRVTMTVDTSTSTAYMELSSLRSEDTAVYYCAREDGYDAWFAYWGQGTLVTVSS VL: DVVMTQSPLSLPVTLGQPASISCRSSQSILHSNGNTYLEWYQQRPGQSPRLLICKVSNRFSGVPDRFSGSGSGTDFTLKISRVEAEDVGVYYCFQGSHVPFTFGQGTKLEIKR
0.101 nM | 0.000214 s⁻¹ | 2.12e+06 M⁻¹ s⁻¹ | 7G6-HCzu2-LCzu2 (antibody, human IgG1, kappa, V domains shown, humanized, human IgG1 kappa) VH: QVQLVQSGAEVKKPGASVKVSCKASGYTFTTYWITWVRQAPGQGLEWMGDIYPGSSICNYNEKFKSRVTMTVDTSTSTVYMELSSLRSEDTAVYYCAREDGYDAWFAYWGQGTLVTVSS VL: DVVMTQSPLSLPVTLGQPASISCRSSQSILHSNGNTYLEWYQQRPGQSPRLLICKVSNRFSGVPDRFSGSGSGTDFTLKISRVEAEDVGVYYCFQGSHVPFTFGQGTKLEIKR
0.0961 nM | 0.000206 s⁻¹ | 2.14e+06 M⁻¹ s⁻¹ | 7G6-HCzu5-LCzu6 (antibody, human IgG1, kappa, V domains shown, humanized, human IgG1 kappa) VH: QVQLVQSGAEVKKPGASVKVSCKASGYTFTTYWITWVRQAPGQGLEWMGDIYPGSSISNYNEKFKSRVTMTVDTSTSTAYMELSSLRSEDTAVYYCAREDGYDAWFAYWGQGTLVTVSS VL: DVVMTQSPLSLPVTLGQPASISCRSSQSILHSNGNTYLEWYQQRPGQSPRLLISKVSNRFSGVPDRFSGSGSGTDFTLKISRVEAEDVGVYYCFQGSHVPFTFGQGTKLEIKR
0.095 nM | 0.000278 s⁻¹ | 2.93e+06 M⁻¹ s⁻¹ | 7G6-HCzu5-LCzu21 (antibody, human IgG1, kappa, V domains shown, humanized, human IgG1 kappa) VH: QVQLVQSGAEVKKPGASVKVSCKASGYTFTTYWITWVRQAPGQGLEWMGDIYPGSSISNYNEKFKSRVTMTVDTSTSTAYMELSSLRSEDTAVYYCAREDGYDAWFAYWGQGTLVTVSS VL: DVVMTQSPLSLPVTLGQPASISCRSSQSILHSNGNTYLEWFQQRPGQSPRLLISKVSNRFSGVPDRFSGSGSGTDFTLKISRVEAEDVGVYYCFQGSHVPFTFGQGTKLEIKR
